Laboratory results as given in the nanobody polyreactivity screen of Harvey et al. (2022).

Experiment: yeast display, Sf9 membrane polyspecificity reagent, FACS + sequencing; frameworks hold sequencing errors
Procedure, shortened: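 In a synthetic yeast display library (Saccharomyces cerevisiae BJ5465), nanobody expression was induced with galactose for 36–48 hours. FACS gates were set low and high (top ~1%) using anti-HA fluorescence for expression and streptavidin fluorescence for binding of the Sf9 membrane reagent. Each polyreactivity label is drawn from the gate of origin.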

With “QFQLVESGGGLVQAGGSLRLSCAASGFTFYLYAMGWYRQAPGKERELVAAIRGSGGSTYYADSVKGRFTISRDTAKNSVYLQMNSLKPEDTEVYYCAADYKVSASWYYAYTFYYWGQGTQVTVSS” as the sequence, how does the “polyreactivity (PSR sort gate)” value read?
The value was “low polyreactivity”.

For “QFQLVESGGGLVQAGGSLRLSCAASGGIFTDYTMGWYRQAPGKERELVAAITWTGGSTYYADSVKGRFTISRDNAKNTVYLQMNILKPEDTAVYYCAADDYWVNLDYWGQGTQVTVSS”, which “polyreactivity (PSR sort gate)” value is on record?
The value was “low polyreactivity”.

With “QFQLVESGGGLVQAGGSLRLSCAASGGTFDPYAMGLYRQAPGKERELVAAINYGGGSTYYADSVKGRFTISRDNAKNTVYLQMNSLKPEDTAVYYCAADGGRLTTSQLAQWEYDYWGQGTQVTVSS” as the sequence, how does the “polyreactivity (PSR sort gate)” value read?
The value was “low polyreactivity”.

For “QFQLVESGGGLVQAGGSLRLSCAASGIIFGRYTKGWYRDAPGKETELVAAITSSGITYYADSVKGRFTISRDNAKNTVYLQMNSLKPEDTAVYYCAADVGYWGRSRGYPSDDYDYWGQGTQVTVSS”, which “polyreactivity (PSR sort gate)” value is on record?
The value was “low polyreactivity”.

With “QFQLVESGGGLVQAGGSLRLSCAASGIILRGYAMGWYRQAPGKERELVASISRGGSTNYADSVKGRFTISRDNAKNTVYLQMNSLKPEDTAVYYSNARIWYYGRYQGAYRFDYWGQGTQVTVSS” as the sequence, how does the “polyreactivity (PSR sort gate)” value read?
Its value is “high polyreactivity”.

Which “polyreactivity (PSR sort gate)” value does the source give for “QFQLVESGGGLVQAGGSLRLSCAASGINFGRNTMGMYRQAPGKERELVAAIDSGGNTYADSVKGRFTISRDNAKNTVYLQMNSLKPEDTAVYFCAVDGGEFSSYGYWGQGTQVTVSS” here?
Its value is “low polyreactivity”.

Which “polyreactivity (PSR sort gate)” value does the source give for “QFQLVESGGGLVQAGGSLRLSCAASGITFSFYAIVWYRQATGKERELVAAINGRGGRTYYADSVKGRFTISRDKAKNTFYLQMNSLKTEDTAVYFCAAVVWRTDYDYWGQGTQVTVSS” here?
The value was “low polyreactivity”.

Which “polyreactivity (PSR sort gate)” value does the source give for “QFQLVESGGGLVQAGGSLRLSCAASGLIFTANAMGWYRQAPGKERELVASITWSGDSTYYADSVKGRFTISRDNAKNTVYLQMNSLKPEDSAVYYCNARPVYTYVTYDGNYWGQGTQVTVSS” here?
The value was “low polyreactivity”.

With “QFQLVESGGGLVQAGGSLRLSCAASGRIFNGNAMGLYRQAPGKERELVAASTSDGSTYADSVKGRFTISRDNAKNTVYLQMNSLKPEDTAVYYCNRDGYTNSRGYEFYYWGQGTQVTVSS” as the sequence, how does the “polyreactivity (PSR sort gate)” value read?
Its value is “low polyreactivity”.

With “QFQLVESGGGLVQAGGSLRLSCAASGRIFRRYTMGWYRQAPGKERELVATITWDGVSTYYADSVKGRFTISRDNAKNTVYLQMNSLKPEDTAVYYCNVDVYYYVLSYQYDYWGQGTQVTVSS” as the sequence, how does the “polyreactivity (PSR sort gate)” value read?
The value was “high polyreactivity”.

With “QFQLVESGGGLVQAGGSLRLSCAASGRIFVQYAMGWYRQATGKQTEFVAAISYRGGSTYYADSVKGRFTISRDNSKITVYLPMNSLKPEDTAVYYCAIVFPYRGKVTLDYWVQGTQVTVSS” as the sequence, how does the “polyreactivity (PSR sort gate)” value read?
Its value is “low polyreactivity”.

With “QFQLVESGGGLVQAGGSLRLSCAASGRIFVRYAMGLYRKAPGKERELVAAISKSGGSTYYADSVKGRFTISRDNAKNTVYLQMNSLKPEDTAVYYCNALVRRRPGYIRYDYWGQGTQVTVSS” as the sequence, how does the “polyreactivity (PSR sort gate)” value read?
The value was “low polyreactivity”.

Which “polyreactivity (PSR sort gate)” value does the source give for “QFQLVESGGGLVQAGGSLRLSCAASGRIFVRYAMGWYRQAPGKERELVAGITWSGGSTYYADSVKGRFTISRDNSKNTVYLQMNSLKPEDTAVYYCAAERRFYTSYKSKMESCGQGTQVTVSS” here?
The value was “high polyreactivity”.

For “QFQLVESGGGLVQAGGSLRLSCAASGRIFVYNAMGLYRQAPGKEREFVATITSSGGRTYYADSVKGRFTISRDNAKNTVYLQLNSLKPEDTAVYYWAARPQNNGRNPLYRYNYWGQGTQVTVSS”, which “polyreactivity (PSR sort gate)” value is on record?
Its value is “high polyreactivity”.

Which “polyreactivity (PSR sort gate)” value does the source give for “QFQLVESGGGLVQAGGSLRLSCAASGRIIAFYARGWYRQAPGKERELVAAITSGSSTNYADSVKGRFTISRDNAKNTVYLQMNSLKPEDTAVYYCAAEGLRKGDRTDWKLYEYWGQGTQVTVSS” here?
Its value is “high polyreactivity”.

For “QFQLVESGGGLVQAGGSLRLSCAASGRTFGSNVRGWYRQAPGKERELVAAISVSGGSTYYADSVKGRFTISRDNAKNTVYLQMNSLKPDDTAVYYCAADYPTLGYTQNDYWGQGTQVTVSS”, which “polyreactivity (PSR sort gate)” value is on record?
Its value is “low polyreactivity”.

With “QFQLVESGGGLVQAGGSLRLSCAASGRTFIVYAMGWYRQAPGKERELVAGITLGSTNYADSVKGRFTISRDNAKNTVYLQMNSLKPEDTAVYYCAARSSRRGPISEGDYWGQGTQVTVSS” as the sequence, how does the “polyreactivity (PSR sort gate)” value read?
The value was “high polyreactivity”.

With “QFQLVESGGGLVQAGGSLRLSCAASGRTFKKYAMGWYRQAPGKESELVAAITFSGGSTYYADSVKGRFTISRDNANNTVYLQMNSLKPEDTAVYYCAAKRLGGSYGSDYWGQGTQVTVSS” as the sequence, how does the “polyreactivity (PSR sort gate)” value read?
The value was “high polyreactivity”.

Which “polyreactivity (PSR sort gate)” value does the source give for “QFQLVESGGGLVQAGGSLRLSCAASGRTFKYNAMGWYRQAPGKERELVAAISSTGSTNYADSVKGRFTISRDNAKNTVYLQMNSLKPEDTAVYYSAARGLPSNYYYYVHGYIMYYWGQGTQVTVSS” here?
The value was “low polyreactivity”.

For “QFQLVESGGGLVQAGGSLRLSCAASGRTFQLNAMGWYRQAPGKERELVAAISTRGGSTNYADSVKGRFTISRDNAKNTVYLQMNRLKPEDTAVYYCAKDPSFTRGFKEGGGYDYWGQGSQVTVSS”, which “polyreactivity (PSR sort gate)” value is on record?
Its value is “high polyreactivity”.

Which “polyreactivity (PSR sort gate)” value does the source give for “QFQLVESGGGLVQAGGSLRLSCAASGRTFYAYAMGWYRQAHGKARELVAAIRGRTYYADSVKGRFTISSDNAKNTVYLQMNSLKPEDTAVYYCAARWVPREKLMFYWGQGTQVTVSW” here?
The value was “high polyreactivity”.

Which “polyreactivity (PSR sort gate)” value does the source give for “QFQLVESGGGLVQAGGSLRLSCAASGRTFYQYTMGWYRQAPGKERELVAAITTSTGNTYYADSVKGRFTISRDNAKNTVYLQLNSLKPEDTAVYYCAAEPPTYKLLDYWGQGTQVTVSS” here?
The value was “low polyreactivity”.

Which “polyreactivity (PSR sort gate)” value does the source give for “QFQLVESGGGLVQAGGSLRLSCAASGRTSLGYDMRWYRQAPGKERELVAAITRSGGYTYYADSVKGRFTISRDNAKNTVYLQMNSLKPEDTAVYYCAAYWRYSGYYYWGQGTQVTVSS” here?
The value was “low polyreactivity”.

Which “polyreactivity (PSR sort gate)” value does the source give for “QFQLVESGGGLVQAGGSLRLSCAASGSIFDIYAMGWYRPAPGKERELVADITISGGSTYYADSVKGRFTISRDNAKNTVYLQLNSLIPEDTAVYYCAADVTVVLGYKYDYWGQGTQVTVSS” here?
Its value is “low polyreactivity”.

Which “polyreactivity (PSR sort gate)” value does the source give for “QFQLVESGGGLVQAGGSLRLSCAASGSIFFIYAMGWYRQAPGKERELVATITSGGSTYYADSVKGRFTISRDNAKNTVYLQMNSLKPEDTAVYYCAVDEYFAFDYWGQGTQVTVSS” here?
The value was “low polyreactivity”.

For “QFQLVESGGGLVQAGGSLRLSCAASGSIFVPYAMGWYRQAPGKERELVAAISSSTASTYYADSVKGRFTISRDNAKNTVYLQMNSLKPEDTAVYYCNAEQWDYGVRVAHYDYWGQGTQVTVSS”, which “polyreactivity (PSR sort gate)” value is on record?
Its value is “low polyreactivity”.

Which “polyreactivity (PSR sort gate)” value does the source give for “QFQLVESGGGLVQAGGSLRLSCAASGSIFVYNVMGWYRQAPGKERELVAAITYSGGGTYYADSVKGRFTISRDTAKNTVYLQMNSLKPEDTAVYYCAAAYPSVAYSYRYDYWGQGTQVTVSS” here?
Its value is “high polyreactivity”.

Which “polyreactivity (PSR sort gate)” value does the source give for “QFQLVESGGGLVQAGGSLRLSCAASGSIFYRNAMGWYRQAPGKERELVAAISRRGGSTYYADSVKGRFTISRDNAKNTVYLQMNSLKPEDTAVYYCATDGSTSKLVTVAYDYWGQGTQVTVSS” here?
The value was “high polyreactivity”.

Which “polyreactivity (PSR sort gate)” value does the source give for “QFQLVESGGGLVQAGGSLRLSCAASGSTFGVYALGWYRQAPGKARELVATINSGGSTNYADSVKRRFTSSRDNAKNTVYLQMTSLTPEDTAVYYCAAGPFWQDFYVYEYDYWGQGTQVTVSS” here?
Its value is “low polyreactivity”.

With “QFQLVESGGGLVQAGGSLRLSCAASGSTFNYNAMGWYRQAPGKERELVAAISSSGGSTYYADSVKGRITISRDNAKNTVYLQMNSLKPEDTAVYSCATGGSSRVRTEGDYWGQGTQVTVSS” as the sequence, how does the “polyreactivity (PSR sort gate)” value read?
Its value is “low polyreactivity”.

With “QFQLVESGGGLVQAGGSLRLSCAASGTFYPYAMGWYRQAPGKERELVAGITGSGGYTYFADSVKGRFTISRDNAKNTVYLQMNSLKPEDTAVYYCAKRSWIEYDYWGQGTQVTVSS” as the sequence, how does the “polyreactivity (PSR sort gate)” value read?
The value was “low polyreactivity”.

With “QFQLVESGGGLVQAGGSLRLSSAASGFIIRYYAMGWYRQAPGKERELVAAISASGGSTYYADSVKGRFTISRDNAKNTVYLQMNSLKPEDTAVYYCAARYWLREDYWGQGTQVTVSS” as the sequence, how does the “polyreactivity (PSR sort gate)” value read?
Its value is “high polyreactivity”.

For “QFQLVESGGGLVQPGGRLRLICAASGHNFPLNAMGWYRQAPGKERELVAAISRTGGSTYYADSVKGRFTISRDNAKFSVYLQMNSLKPEDTALYFCAKRGQACEDYWGEGTQVTVSS”, which “polyreactivity (PSR sort gate)” value is on record?
Its value is “high polyreactivity”.

With “QFQLVESGGGLVQSGGSLRLSCAASGLIFVFYAMGWYRQAPGKERELVAAISTSGDRTYYADSVKGRFTISRDNAKNTVYLQMNSLKPEDTAVYYCAAGRRKVPYSREYYYWGQGTQVTVSS” as the sequence, how does the “polyreactivity (PSR sort gate)” value read?
The value was “high polyreactivity”.

Which “polyreactivity (PSR sort gate)” value does the source give for “QFQLVESGGVLDQAGGSLRLSCAASGSNFTIYAIGWYRQAPGKERELVADISSGGSTYYADSVKGRFTISRDNAKNTVYLQMNSLNPEDTAVYYCAAGVFFFTFVYWGQGTQVTVSS” here?
Its value is “low polyreactivity”.

For “QFQLVESGGVLVQAGGILRLSCAASGSIFIDNAMGWYRQEPGKERDLVAAITVRGASTNYADSVKGRFTISRDNAKNTVYLQMNSLKPEDTAVYYCNAVGLRSPWHQDYLIRYDYWGQGTQVTVSS”, which “polyreactivity (PSR sort gate)” value is on record?
Its value is “low polyreactivity”.

For “QFQLVESGRGLVQAGGSLRLSCAASGSIFYAYAMGWYRKAPGKEREFVAVISYSGGSTYYADSVQGRFTISRDKAKNTVYLQMNSLKPEDTAVYYCAARYRAWSGNYWGQGTQVTVSS”, which “polyreactivity (PSR sort gate)” value is on record?
Its value is “high polyreactivity”.

For “QFQLVESLGGLDQAGGSLRLSFAASGLIILAYAMVWYRQAPGKERELVAAISRNRGSTYYADSVKGRLTISRDNAKNTVYLQMNSLKPEVTEVYYCNNVSRSSVYLDYYYWGQGTQVTVSS”, which “polyreactivity (PSR sort gate)” value is on record?
Its value is “high polyreactivity”.

With “QFQLVESRGGLVQAGGSLRLSCAASGSIFGSNAMGLYRQAPAKERELVAANSGSGGSTNYADSVKGRLTLSRDIAQNTVYLHMNSLKPEDTAVYYCAVPSKATGSASTSYGIFDSWGQGTQVTVSS” as the sequence, how does the “polyreactivity (PSR sort gate)” value read?
Its value is “low polyreactivity”.

For “QFQLVESVGGLVQAGGSLRLSFAASGFNFDYNAMGWYRQAPGKERELVAAISNTGDSTYYADSVKGRFTISRDNAKNTVYLQMNSLQPEDTAVYYCAADSLFDDYWEYDYWGQGTQVTVSS”, which “polyreactivity (PSR sort gate)” value is on record?
The value was “low polyreactivity”.

Which “polyreactivity (PSR sort gate)” value does the source give for “QFQLVETGGGLVQAGGSLRLSCAASGSILGFNAMRWYIQAPGKESELGAAIRWSGDSTYADSVKGLFTMSRDNAKNTVYLQMNSLTQEDPSFYYCNARDTSYANWLSHFYYWGQGTQVTVSW” here?
The value was “low polyreactivity”.

With “QFQLVETGGGLVQAGGSLRLSSAASGSTFTLYAMGWYRQAPGKERELVATITGSGGSTNYADSVKGRFTISRDNAKNTVYLQMNSLKPEDTAVYYCAADYAVYSFTEFNYWGQGTQVTVSS” as the sequence, how does the “polyreactivity (PSR sort gate)” value read?
Its value is “high polyreactivity”.

Which “polyreactivity (PSR sort gate)” value does the source give for “QFQRGESGGGLVQAGGSLRLSCAASGRLFYSYAMGGYRQAPGKERELVAAINSGDRTYYADSVKGRFTISRDNAKNTVYLQKNSLNPEDPAVYYCATRWFAFPWDEYNYWGQGSQVTVSS” here?
The value was “low polyreactivity”.
